According to publication PMC6137056:
pKd: −log10 of the molar value.

What was measured:
[1] = test system: UVI31+ (wild type) (Chlamydomonas reinhardtii), PDB:5ZB6_1; test: EMSA; conditions: ITC: 10 mM Tris-HCl pH 7.5, 50 mM NaCl, 5% glycerol, 5 mM MgCl2, 0.1 mM EDTA, 25 C, EMSA: 10 mM Na-phosphate pH 7.5, 10 mM NaCl, 1 mM MgCl2, 37 C, 5 min, 1 uM …
[2] = test system: UVI31+ (wild type) (Chlamydomonas reinhardtii), PDB:5ZB6_1; test: ITC; conditions: ITC: 10 mM Tris-HCl pH 7.5, 50 mM NaCl, 5% glycerol, 5 mM MgCl2, 0.1 mM EDTA, EMSA: 10 mM Na-phosphate pH 7.5, 10 mM NaCl, 1 mM MgCl2, 37 C, 5 min, 1 uM …; for Ka (M-1 (unit not given)): 5 mM MgCl2, 25 C

Work on 50-bp dsDNA (EMSA) yielded a pKd [1] of 5.96.
“CGCGAATTCGCG (double strand) [12-mer self-complementary ds-DNA]” gave a Ka (M-1 (unit not given)) ([2]; K1, sequential binding model) of 3.05e+06, a Ka (M-1 (unit not given)) ([2]; K2, sequential binding model) of 11400 and a pKd ([2]; apparent Kd, two sets of sites, 5 mM MgCl2, 50 mM NaCl, pH 7.5, 25 C) of 5.27.
With ssDNA (EMSA, 50-mer) the pKd ([1]; 1 mM MgCl2, partial loss of ssDNA by cleavage) was 5.85.
